Test results as given in EP2985295A1 (Calypso Biotech SA, dated 2016).

B1: G03-VH-GL / G06-VL-GL1 (antibody, V domains shown)
VH: EVQLVQSGAEVKKPGASVKVSCKASGYTFTSYGISWVRQAPGQGLEWMGWISAYNGNTNYAQKLQGRVTMTTDTSTSTAYMELRSLRSDDTAVYYCARDYYGMDVWGQGTTVTVSS
VL: QAVLTQPPSASGTPGQRVTISCSGSTFNIGSNTVNWYQQLPGTAPKLLIYSDSHRPSGVPDRFSGSNSWNTASLAISGLQSEDEADYYCQAWDSSAVVFGGGTKVTVLG
B2: G03-VH-GL-V1 / G06-VL-GL1 (antibody, V domains shown)
VH: EVQLVQSGAEVKKPGASVKVSCKASGYTFTSYGISWVRQAPGQGLEWMGYISAYNGNTNYAQKLQGRVTMTTDTSTSTAYMELRSLRSDDTAVYYCARDYYGMDVWGQGTTVTVSS
VL: QAVLTQPPSASGTPGQRVTISCSGSTFNIGSNTVNWYQQLPGTAPKLLIYSDSHRPSGVPDRFSGSNSWNTASLAISGLQSEDEADYYCQAWDSSAVVFGGGTKVTVLG
B3: G03-VH-GL-V1-V9 / G06-VL-GL1 (antibody, V domains shown)
VH: EVQLVQSGAEVKKPGASVKVSCKASGYTFTSYGISWVRQAPGQGLEWMGYISAYNANTNYAQKLQGRVTMTTDTSTSTAYMELRSLRSDDTAVYYCARDYYGMDVWGQGTTVTVSS
VL: QAVLTQPPSASGTPGQRVTISCSGSTFNIGSNTVNWYQQLPGTAPKLLIYSDSHRPSGVPDRFSGSNSWNTASLAISGLQSEDEADYYCQAWDSSAVVFGGGTKVTVLG

Tests used:
Test in all cases: cell-based or functional assay
[1] = target: Human MMP9 (i.e. activated MMP9) (human, UniProt P14780 107-707)
Sequence of Human MMP9 (i.e. activated MMP9) (P14780 107-707): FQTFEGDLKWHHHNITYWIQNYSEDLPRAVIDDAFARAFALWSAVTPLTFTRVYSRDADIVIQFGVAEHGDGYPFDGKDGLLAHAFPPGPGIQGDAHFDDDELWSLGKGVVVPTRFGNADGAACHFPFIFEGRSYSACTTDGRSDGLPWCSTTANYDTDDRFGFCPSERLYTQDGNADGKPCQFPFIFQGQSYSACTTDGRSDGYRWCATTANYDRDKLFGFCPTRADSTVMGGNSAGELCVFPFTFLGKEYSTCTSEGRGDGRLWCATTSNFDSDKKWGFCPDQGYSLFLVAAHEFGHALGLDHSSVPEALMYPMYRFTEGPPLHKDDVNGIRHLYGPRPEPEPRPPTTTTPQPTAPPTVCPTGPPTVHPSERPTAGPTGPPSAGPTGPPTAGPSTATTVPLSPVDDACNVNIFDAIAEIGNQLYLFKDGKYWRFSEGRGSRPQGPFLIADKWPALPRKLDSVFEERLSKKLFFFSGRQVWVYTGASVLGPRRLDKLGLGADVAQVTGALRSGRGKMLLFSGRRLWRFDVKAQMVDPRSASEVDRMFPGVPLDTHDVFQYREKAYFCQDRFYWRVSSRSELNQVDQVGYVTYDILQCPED

Human proMMP9 = Human proMMP9 (human, UniProt P14780 20-707)
Sequence of Human proMMP9 (P14780 20-707): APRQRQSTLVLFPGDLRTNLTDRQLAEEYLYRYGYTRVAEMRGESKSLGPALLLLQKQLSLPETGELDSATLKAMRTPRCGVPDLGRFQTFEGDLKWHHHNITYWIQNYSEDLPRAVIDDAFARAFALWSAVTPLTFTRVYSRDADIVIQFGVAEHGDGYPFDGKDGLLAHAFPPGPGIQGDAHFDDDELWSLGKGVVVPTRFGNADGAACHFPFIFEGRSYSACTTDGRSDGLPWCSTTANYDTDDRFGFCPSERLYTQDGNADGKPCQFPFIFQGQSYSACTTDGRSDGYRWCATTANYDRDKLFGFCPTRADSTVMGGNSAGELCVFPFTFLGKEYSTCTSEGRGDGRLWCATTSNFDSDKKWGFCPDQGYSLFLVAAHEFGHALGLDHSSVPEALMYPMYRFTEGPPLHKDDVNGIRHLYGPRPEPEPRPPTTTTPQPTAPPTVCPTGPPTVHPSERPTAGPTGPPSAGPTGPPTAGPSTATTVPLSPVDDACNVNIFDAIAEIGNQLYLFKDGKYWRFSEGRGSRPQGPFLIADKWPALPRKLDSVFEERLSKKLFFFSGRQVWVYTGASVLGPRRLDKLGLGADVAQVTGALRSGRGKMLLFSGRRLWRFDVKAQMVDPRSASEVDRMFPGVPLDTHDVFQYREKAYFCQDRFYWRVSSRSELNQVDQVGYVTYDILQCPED

Cyno proMMP9 = Cyno proMMP9 (Cynomologus monkey)
rat proMMP9 = rat proMMP9 (rat, UniProt P50282 20-708)
Sequence of rat proMMP9 (P50282 20-708): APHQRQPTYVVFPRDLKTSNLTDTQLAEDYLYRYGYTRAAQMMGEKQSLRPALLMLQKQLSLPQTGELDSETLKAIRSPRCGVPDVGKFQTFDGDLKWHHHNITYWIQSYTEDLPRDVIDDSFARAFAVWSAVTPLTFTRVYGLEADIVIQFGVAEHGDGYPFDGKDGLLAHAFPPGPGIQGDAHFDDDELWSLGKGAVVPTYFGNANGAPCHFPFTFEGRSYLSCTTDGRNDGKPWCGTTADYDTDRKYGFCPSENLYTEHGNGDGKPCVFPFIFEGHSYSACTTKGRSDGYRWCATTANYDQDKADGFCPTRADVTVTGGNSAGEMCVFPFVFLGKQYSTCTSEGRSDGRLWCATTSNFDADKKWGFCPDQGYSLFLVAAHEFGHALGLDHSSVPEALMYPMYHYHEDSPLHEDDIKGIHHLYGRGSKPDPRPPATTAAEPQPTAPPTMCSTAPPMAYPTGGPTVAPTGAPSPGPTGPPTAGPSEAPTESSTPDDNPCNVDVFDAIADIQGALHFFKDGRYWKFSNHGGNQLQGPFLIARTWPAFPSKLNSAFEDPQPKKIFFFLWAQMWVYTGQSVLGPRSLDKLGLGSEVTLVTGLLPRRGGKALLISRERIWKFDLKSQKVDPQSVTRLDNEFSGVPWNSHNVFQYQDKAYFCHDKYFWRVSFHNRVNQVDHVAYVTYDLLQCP

mouse proMMP9 = mouse proMMP9 (mouse, UniProt P41245 20-730)
Sequence of mouse proMMP9 (P41245 20-730): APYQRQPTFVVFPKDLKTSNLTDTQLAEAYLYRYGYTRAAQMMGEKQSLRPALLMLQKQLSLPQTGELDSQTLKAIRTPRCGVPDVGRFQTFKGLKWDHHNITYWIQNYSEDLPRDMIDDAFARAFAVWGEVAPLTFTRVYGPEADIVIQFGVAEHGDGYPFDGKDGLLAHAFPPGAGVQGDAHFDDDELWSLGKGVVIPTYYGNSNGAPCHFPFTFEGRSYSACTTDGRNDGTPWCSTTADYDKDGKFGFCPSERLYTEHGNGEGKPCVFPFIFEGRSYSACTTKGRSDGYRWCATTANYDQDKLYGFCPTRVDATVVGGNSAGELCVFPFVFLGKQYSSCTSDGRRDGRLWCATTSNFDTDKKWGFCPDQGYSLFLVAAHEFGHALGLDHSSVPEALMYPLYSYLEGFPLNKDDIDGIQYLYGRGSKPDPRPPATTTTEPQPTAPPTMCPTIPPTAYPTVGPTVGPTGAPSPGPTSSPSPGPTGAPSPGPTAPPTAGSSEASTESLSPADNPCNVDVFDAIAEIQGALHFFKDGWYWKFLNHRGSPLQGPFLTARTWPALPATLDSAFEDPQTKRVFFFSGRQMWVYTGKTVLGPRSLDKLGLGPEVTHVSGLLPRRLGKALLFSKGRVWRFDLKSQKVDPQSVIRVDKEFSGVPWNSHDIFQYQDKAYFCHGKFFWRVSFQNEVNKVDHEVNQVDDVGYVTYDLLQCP

Row | Binder | Efficiency, neutralization of catalytic activity on DQ-gelatin (MMP9 assay) [1] [%] | IC50 (nM), neutralization of catalytic activity on DQ-gelatin (MMP9 assay) [1] [nM] | Efficiency, neutralization of proMMP9 processing and/or downstream catalytic activity on DQ-gelatin (MMP3/MMP9 assay) (Human proMMP9) [%] | IC50 (nM), neutralization of proMMP9 processing and/or downstream catalytic activity on DQ-gelatin (MMP3/MMP9 assay) (Human proMMP9) [nM] | Efficiency, neutralization of processing of cyno MMP9 and/or its catalytic activity on gelatin (MMP3/MMP9 assay) (Cyno proMMP9) [%] | IC50 (nM), neutralization of processing of cyno MMP9 and/or its catalytic activity on gelatin (MMP3/MMP9 assay) (Cyno proMMP9) [nM] | Efficiency, neutralization of processing of rat MMP9 and/or its catalytic activity on gelatin (MMP3/MMP9 assay) (rat proMMP9) [%] | IC50 (nM), neutralization of processing of rat MMP9 and/or its catalytic activity on gelatin (MMP3/MMP9 assay) (rat proMMP9) [nM] | Efficiency, neutralization of processing of mouse MMP9 and/or its catalytic activity on gelatin (MMP3/MMP9 assay) (mouse proMMP9) [%] | IC50 (nM), neutralization of processing of mouse MMP9 and/or its catalytic activity on gelatin (MMP3/MMP9 assay) (mouse proMMP9) [nM]
1 | B1 | 50 | 0.13 | 100 | 0.21 | 100 | 0.04 | 100 | 64.7 | 30 | 151
2 | B2 | 50 | 0.06 | 100 | 0.19 | 100 | 0.03 | 100 | 19 | 25 | 16.4
3 | B3 | 50 | 0.11 | 100 | 0.21 | 100 | 0.14 | 100 | 93.6 | 25 | 12.6
